Measured values: US20260242495A1 (PROMETHEUS BIOSCIENCES, published 2026)
Where “and” joins values, the source holds several entries; their conditions need not be identical. Equal entries are not always repeated.

Target: T1, cynomolgus monkey TL1A (cynomolgus monkey, UniProt G7PRK8 72-251)
T1 sequence: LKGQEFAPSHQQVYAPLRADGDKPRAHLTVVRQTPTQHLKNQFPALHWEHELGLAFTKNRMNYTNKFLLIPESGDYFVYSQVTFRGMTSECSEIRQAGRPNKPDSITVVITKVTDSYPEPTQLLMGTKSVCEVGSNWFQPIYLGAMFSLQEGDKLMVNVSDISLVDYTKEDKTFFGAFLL
Assay: cell-based or functional assay

B1: anti-TL1A antibody A219 (antibody, V domains shown)
VH: QVQLVQSGAEVKKPGASVKVSCKASGFDIQDTYMHWVKQRPGQGLEWMGRIDPASGHTKYDPKFQVRVTITRDTSTSTVYLELSSLRSEDTAVYYCARSGGLPDVWGQGTTVTVSS
VL: EIVLTQSPGTLSLSPGERATLSCRASSSVSYMYWYQQKPGQAPRPLIYATSNLASGIPDRFSGSGSGTDFTLTISRLEPEDFAVYYCQQWEGNPRTFGGGTKLEIK
IC50 of inhibition of IFN-γ release in monkey whole blood stimulated with immune complex, IL-12 and IL-18: 1.54 nM and 289 ng/mL
